Measurements: PMC3779078 (Molecular reproduction and development, 2009)
Each block holds one molecule with its values, some of them ahead of it.

Key:
Assay in all cases: PAGE under mildly denaturing conditions with Western blot
[1] = biological target: Izumo domain of Izumo 3, recombinant (mouse)
[2] = biological target: Izumo 1 N-terminal domain (N), recombinant (mouse)
[3] = biological target: the molecule itself

stoichiometry N [1]: 2
Molecule: Izumo domain of Izumo 3, recombinant (domain or fragment)

stoichiometry N [2]: 2
Molecule: Izumo 1 N-terminal domain (N), recombinant (domain or fragment)

B1: Izumo 1 entire extracellular domain (N-Ig), recombinant (domain or fragment, mouse, UniProt Q9D9J7 22-319, looked up)
chain: CIKCDQFVTDALKTFENTYLNDHLPHDIHKNVMRMVNHEVSSFGVVTSAEDSYLGAVDENTLEQATWSFLKDLKRITDSDLKGELFIKELLWMLRHQKDIFNNLARQFQKEVLCPNKCGVMSQTLIWCLKCEKQLHICRKSLDCGERHIEVHRSEDLVLDCLLSWHRASKGLTDYSFYRVWENSSETLIAKGKEPYLTKSMVGPEDAGNYRCVLDTINQGHATVIRYDVTVLPPKHSEENQPPNIITQEEHETPVHVTPQTPPGQEPESELYPELHPELYPELIPTVAQNPEKKMKTR
stoichiometry N [3]: 2
